Substitutions are numbered along the chain they refer to.
B1: bacterial CPG2: purified, bacterially expressed CPG2 used as a standard (Sigma C4053) (protein, UniProt P06621 23-415, looked up)
Carboxypeptidase G2: ALAQKRDNVLFQAATDEQPAVIKTLEKLVNIETGTGDAEGIAAAGNFLEAELKNLGFTVTRSKSAGLVVGDNIVGKIKGRGGKNLLLMSHMDTVYLKGILAKAPFRVEGDKAYGPGIADDKGGNAVILHTLKLLKEYGVRDYGTITVLFNTDEEKGSFGSRDLIQEEAKLADYVLSFEPTSAGDEKLSLGTSGIAYVQVNITGKASHAGAAPELGVNALVEASDLVLRTMNIDDKAKNLRFNWTIAKAGNVSNIIPASATLNADVRYARNEDFDAAMKTLEERAQQKKLPEADVKVIVTRGRPAFNAGEGGKKLVDKAVAYYKEAGGTLGVEERTGGGTDAAYAALSGKPVIESLGLPGFGYHSDKAEYVDISAIPRRLYMAARLIMDLGAGK
B2: CPG2: carboxypeptidase G2 with kappa light chain secretory leader, unaltered glycosylation sites, expressed from mammalian cells (pNG3/RC/CPG2) (protein, UniProt P06621 23-415, looked up)
Carboxypeptidase G2: B1 Carboxypeptidase G2
modifications: kappa light chain secretory leader
B3: CPG2(Q3): CPG2 with asparagine at positions 222, 264 & 272 mutated to glutamine, secreted form (protein, UniProt P06621 23-415, looked up, variant N222Q N264Q N272Q)
Carboxypeptidase G2: B1 Carboxypeptidase G2 with N200Q, N242Q, N250Q
modifications: secreted form
notes: CPG2 with asparagine at positions 222, 264 & 272 mutated to glutamine, secreted form

How the values were obtained:
[1] = bacterially expressed standard (Sigma C4053); cited from earlier work
[2] = HPLC based CPG2 enzyme activity assay with CPG2 capture ELISA, supernatants of adenovirally infected CHO K1 cells; assay type: biochemical; conditions: RAd infected CHO K1 cells, supernatant 48 hours after infection
Protocol: (§1) For the CPG2 capture ELISA, 96 well plates precoated with goat anti-mouse IgG are used (PIERCE REACII-BIND™ 15134 plates). A second layer of mouse monoclonal anti-CPG2 diluted 1:800 in PBS/0.05% TWEEN™/BSA is added by overnight incubation at 4°. In between each binding step the plate is washed 3 times with PBS/0.05% TWEEN™. 100 μl test sample is added per well and doubling dilutions in PBS/0.05%TWEEN™ carried out across the plate. A fourth layer of rabbit polyclonal anti-CPG2 diluted 1:2500 in PBS/0.05% TWEEN™/2% BSA is added followed by a final layer of goat anit-rabbit IgG Horse Radish Peroxidase Labelled Antibody (DAKO PO448) diluted 1:1000 in PBS/0.05% TWEEN™/2% BSA. To detect binding, 100 μl per well of developing solution is added [one capsule of phosphate-citrate buffer (Sigma P4922) dissolved in 100 ml water to which is added one 30 mg tablet o-phenyldiamine dihydrochloride (Sigma P4812)] and the reaction stopped after 5 mins by adding 75 μl 2M H2SO4, and the absorbance read at 490 nm.
To measure CPG2 enzyme activity in cell supernatant samples at HPLC based CPG2 enzyme assay can be used. […] 60 μl of sample is injected and the absorbance at 300 nm measured over a total run time of 8 mins/sample giving expected retention times for methotrexate and metabolite of 3.9 and 5.6 respectively. […]

[3] = HPLC based CPG2 enzyme activity assay with CPG2 capture ELISA, supernatants of transiently transfected COS 7 cells; assay type: biochemical; conditions: for specific activity of unpurified protein in crude supernatant, expressed in presence of tunicamycin / specific activity of unpurified protein in crude supernatant: COS 7 transient plasmid expression; for specific activity of unpurified protein in crude supernatant, expressed in presence of tunicamycin: 10 μg/ml tunicamycin (unglycosylated protein); for specific activity of unpurified protein in crude supernatant: tunicamycin absent, for CPG2 the combined activity of three protein forms (glycosylated and unglycosylated)
Protocol: Transient tranfection of COS 7 cells can be achieved using a LIPOFECTIN™ based procedure. LIPOFECTIN™ Reagent (Gibco BRL Cat. No. 18292-011) is a 1:1 (w/w) liposome formulation of the cationic lipid DOTMA and DOPE in membrane filtered water. It binds spontaneously with DNA to form a lipid-DNA complex (Felgner et al., Proc. Natl. Acad Sci. USA (1987) 84, 7431. COS 7 cells are seeded into a 6 well plate a 2×10^5 cell/2 ml/well, from a subconfluent culture and incubated overnight at 37°, 5% CO2. A LIPOFECTIN™/serum free medium mix is made up containing 120 μl LIPOFECTIN™ plus 480 μl serum free medium and incubated at room temperature for 30 minutes. A DNA/serum free medium mix is prepared by mixing 12 μg DNA with 600 μl serum free medium. The LIPOFECTIN™/serum free medium mix is added to the DNA/serum free medium mix and left at room temperature for 15 mins. The cells are washed once with 2 ml serum free-medium, then 800 μl serum free media added plus 200 μl LIPOFECTIN™/DNA mix/well and incubated for 5 hours at 37°, 5% CO2. The LIPOFECIN™/DNA mix is removed from the cells and normal growth media added after which the cells are incubated for 48-72 hours at 37°, 5% CO2 when the supernatants are harvested.
COS 7 cells can also be transiently transfected in the presence of the glycosylation inhibitor tunicamycin. The transfection procedure is repeated as above, but after incubating for 5 hours at 37°, 5% CO2, 10 μg/ml tunicamycin (Sigma T7765) is added into the normal growth media.
as §1
To measure CPG2 enzyme activity in cell supernatant samples at HPLC based CPG2 enzyme assay can be used. 125 βl cell supernatant is pulsed in a micro-centrifuge to remove cell debris and 375 μl fresh reaction buffer (PBS/0.2 mM ZnCl2) added. Upon addition of 100 μM methotrexate, a substrate for the CPG2 enzyme, the reaction is incubated at 37° for 1 hour. The reaction is stopped by the addition of 500 μl methanol/0.2% Trifluoroacetio acid. The 1 ml sample is placed in a capped vial and assayed using HPLC. An isocratic separation with a mobile phase containing: 60% Methanol/40%, 60 mM Ammonium formate/0.1% Trifluoroacetic acid is used with an S5SC×column (Hichrom). 60 μl of sample is injected and the absorbance at 300 nm measured over a total run time of 8 mins/sample giving expected retention times for methotrexate and metabolite of 3.9 and 5.6 respectively.
The two plasmids pNG3/RC/CPG2 and pNG3/RC/CPG2(Q3) (which encoded the glycosylatable and Q3 variant secretory forms of the CPG2 protein respectively) were transfected into COS-7 cells using the LIPOFECTIN™ transfection procedure. To confirm that the mutagenesis of CPG2 to CPG2(Q3) had removed all potential glycosylation sites, the two proteins were also expressed in the presence of the glycosylation inhibitor, tunicamycin. After 72 h of expression the cell supernatants were harvested for analysis. […]

Molecule	specific activity of purified bacterial CPG2 [1]	specific activity of virally expressed secretable enzyme [2]	specific activity of unpurified protein in crude supernatant, expressed in presence of tunicamycin [3]	specific activity of unpurified protein in crude supernatant [3]	reduction of enzyme activity by mutagenesis of CPG2 to CPG2(Q3) ([3]; as printed: compared with bacterial expressed enzyme)	specific activity, fold lower than wild type bacterial enzyme ([3]; unpurified protein, COS 7 supernatant)
B1	500 units/mg					
B2		71 units/mg	165-210 units/mg	61-87 units/mg		
B3		180 units/mg	90-124 units/mg	71-120 units/mg	2 fold	approximately 5 fold

Source: patent publication US6838446B1, “Vector for expression of GPI-enzyme hybrid” (AstraZeneca AB, priority 1999, dated 2005)
